Measured values: article PMC2836954 (Molecular Biology of the Cell, 2010)

How the values were obtained:
Experiment in all cases: pull-down
[1] = molecular target: the active ARF1 mutants ARF-Q71L and ARF1-Δ17-Q71L
[2] = molecular target: GST-ARF1-Q71L (human, UniProt P84077 1-181, Q71L)
[3] = molecular target: GST-ARF1 Δ17-Q71L (human, UniProt P84077 18-181, Q71L)
Chain of GST-ARF1 Δ17-Q71L (P84077 18-181 Q71L): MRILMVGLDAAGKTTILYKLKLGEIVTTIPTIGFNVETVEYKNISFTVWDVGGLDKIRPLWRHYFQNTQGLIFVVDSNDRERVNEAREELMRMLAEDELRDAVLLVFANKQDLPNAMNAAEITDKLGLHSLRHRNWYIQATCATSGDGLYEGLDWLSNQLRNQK

Chain of GST-ARF1-Q71L (P84077 whole entry Q71L): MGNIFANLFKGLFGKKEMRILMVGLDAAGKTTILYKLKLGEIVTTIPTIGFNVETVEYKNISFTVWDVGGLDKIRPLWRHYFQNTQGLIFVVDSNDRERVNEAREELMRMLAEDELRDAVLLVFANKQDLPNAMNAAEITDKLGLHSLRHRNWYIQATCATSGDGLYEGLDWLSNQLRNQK

fold binding compared with ARF1-WT or ARF1-T31N [2] [fold] | fold binding compared with ARF1-WT [3] [fold] | Molecule | fold binding compared with wild-type or dominant-negative ARF1 [1] [fold]
– | – | His-tagged C1b domain of PKD2 (domain or fragment) | 1.5 to 1.75
2 | 2 | EGFP-PKD2-WT (protein kinase D2, wild type) (enzyme, UniProt Q9BZL6 1-878, looked up) MATAPSYPAGLPGSPGPGSPPPPGGLELQSPPPLLPQIPAPGSGVSFHIQIGLTREFVLLPAASELAHVKQLACSIVDQKFPECGFYGLYDKILLFKHDPTSANLLQLVRSSGDIQEGDLVEVVLSASATFEDFQIRPHALTVHSYRAPAFCDHCGEMLFGLVRQGLKCDGCGLNYHKRCAFSIPNNCSGARKRRLSSTSLASGHSVRLGTSESLPCTAEELSRSTTELLPRRPPSSSSSSSASSYTGRPIELDKMLLSKVKVPHTFLIHSYTRPTVCQACKKLLKGLFRQGLQCKDCKFNCHKRCATRVPNDCLGEALINGDVPMEEATDFSEADKSALMDESEDSGVIPGSHSENALHASEEEEGEGGKAQSSLGYIPLMRVVQSVRHTTRKSSTTLREGWVVHYSNKDTLRKRHYWRLDCKCITLFQNNTTNRYYKEIPLSEILTVESAQNFSLVPPGTNPHCFEIVTANATYFVGEMPGGTPGGPSGQGAEAARGWETAIRQALMPVILQDAPSAPGHAPHRQASLSISVSNSQIQENVDIATVYQIFPDEVLGSGQFGVVYGGKHRKTGRDVAVKVIDKLRFPTKQESQLRNEVAILQSLRHPGIVNLECMFETPEKVFVVMEKLHGDMLEMILSSEKGRLPERLTKFLITQILVALRHLHFKNIVHCDLKPENVLLASADPFPQVKLCDFGFARIIGEKSFRRSVVGTPAYLAPEVLLNQGYNRSLDMWSVGVIMYVSLSGTFPFNEDEDINDQIQNAAFMYPASPWSHISAGAIDLINNLLQVKMRKRYSVDKSLSHPWLQEYQTWLDLRELEGKMGERYITHESDDARWEQFAAEHPLPGSGLPTDRDLGGACPPQDHDMQGLAERISVL | –
